This is an account of results in patent US20220242962A1 (APTEVO RESEARCH AND DEVELOPMENT, published 2022).

One test addresses T1, Full-length Human OX40 (human, UniProt P43489 29-277).
T1 sequence: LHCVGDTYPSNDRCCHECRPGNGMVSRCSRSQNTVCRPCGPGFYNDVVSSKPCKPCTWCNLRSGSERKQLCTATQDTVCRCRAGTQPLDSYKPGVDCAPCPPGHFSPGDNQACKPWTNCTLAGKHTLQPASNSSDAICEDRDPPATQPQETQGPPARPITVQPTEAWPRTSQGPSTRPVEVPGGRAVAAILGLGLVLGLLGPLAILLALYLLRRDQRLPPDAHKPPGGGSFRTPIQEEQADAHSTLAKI
The test can be described thus: cell-based or functional assay.

The target in another test is Full-length Human 4-1BB (human, UniProt Q07011 24-255). Nature of the test: cell-based or functional assay.
The target in test [1] is T2, Human OX40 ECD-AFH (human).
T2 construct: ECD'; entry includes the C-terminal tags; also called OXF003; Human OX40 ECD-avi-flag-his
T2 chain: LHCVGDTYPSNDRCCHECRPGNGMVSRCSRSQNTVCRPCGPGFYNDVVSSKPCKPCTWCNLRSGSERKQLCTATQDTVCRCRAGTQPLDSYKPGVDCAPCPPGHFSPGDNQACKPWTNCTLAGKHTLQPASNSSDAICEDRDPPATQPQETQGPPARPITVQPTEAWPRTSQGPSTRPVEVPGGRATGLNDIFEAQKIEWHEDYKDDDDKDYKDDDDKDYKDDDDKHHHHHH
Nature of the test: SPR, construct captured, monomeric ECD as analyte. In general terms: SPR reads the build-up and loss of mass on a sensor chip optically.

In test [2] the target is T3, Human 4-1BB ECD-AFH (human).
T3 construct: entry includes the tags; also called FOB003; HUMAN CD137 ECD-AVI-FLAG-HIS
The test can be described thus: SPR, construct captured, monomeric ECD as analyte.
Target sequence in this assay (chain, as listed by the source limits assumed): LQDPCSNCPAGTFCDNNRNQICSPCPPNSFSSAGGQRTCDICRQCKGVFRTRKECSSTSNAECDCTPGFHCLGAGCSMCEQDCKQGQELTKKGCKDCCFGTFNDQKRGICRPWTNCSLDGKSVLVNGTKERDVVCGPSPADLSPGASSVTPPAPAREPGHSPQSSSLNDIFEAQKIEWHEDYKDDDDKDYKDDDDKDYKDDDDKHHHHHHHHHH

The target of test [3] is T2, Human OX40 ECD-AFH. Nature of the test: SPR (Biacore 8K), construct captured, monovalent ECD.
The target of a further test is T4, Cyno OX40-AFH (cynomolgus monkey).
T4 construct: entry includes the tags; also called OXF005; cyno OX40 ECD
T4 chain: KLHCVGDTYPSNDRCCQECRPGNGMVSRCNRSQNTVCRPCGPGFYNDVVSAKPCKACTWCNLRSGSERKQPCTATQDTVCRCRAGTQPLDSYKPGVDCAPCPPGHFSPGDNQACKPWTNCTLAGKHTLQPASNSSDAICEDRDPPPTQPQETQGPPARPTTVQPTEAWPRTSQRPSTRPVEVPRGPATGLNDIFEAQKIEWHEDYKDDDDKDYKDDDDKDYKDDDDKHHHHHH
The description is as above.

Test [4] has as its target T3, Human 4-1BB ECD-AFH. The description is as above.
Another test addresses T5, Full-length Cyno 4-1BB (cynomolgus monkey, UniProt Q07011 24-255 (human entry)).
T5 construct: on Jurkat or CHO cells; also called FOB006; cynomolgus 4-1BB
T5 chain: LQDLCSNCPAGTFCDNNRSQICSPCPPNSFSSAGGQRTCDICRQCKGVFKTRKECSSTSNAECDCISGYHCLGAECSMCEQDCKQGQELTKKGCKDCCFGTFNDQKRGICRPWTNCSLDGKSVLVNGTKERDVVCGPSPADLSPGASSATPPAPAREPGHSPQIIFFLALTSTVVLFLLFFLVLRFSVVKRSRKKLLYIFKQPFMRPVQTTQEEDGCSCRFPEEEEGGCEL
The test can be described thus: flow cytometry on Jurkat cells transfected with cynomolgus 4-1BB, goat anti-human Fc secondary antibody, MFI (Mean). (In flow cytometry, cells or beads pass a laser one at a time.)

Full-length Human 4-1BB, sequence (Q07011 24-255): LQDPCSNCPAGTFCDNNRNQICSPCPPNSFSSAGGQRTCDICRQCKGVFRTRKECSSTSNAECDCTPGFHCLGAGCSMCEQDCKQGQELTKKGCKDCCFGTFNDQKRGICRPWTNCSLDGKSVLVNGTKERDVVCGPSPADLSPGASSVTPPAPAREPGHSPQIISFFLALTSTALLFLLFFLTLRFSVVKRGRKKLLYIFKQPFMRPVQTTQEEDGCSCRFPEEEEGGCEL

B1: FXX01101 (bispecific antibody)
chain: EVQLVQSGAEVKKPGASVKVSCKASGYTFTSYWMNWVRQAPGQGLEWMGNIYPSGGSTNYAQKFQGRVTMTVDTSTSTVYMELSSLRSEDTAVYYCASFSDGYYAYAMDYWGQGTLVTVSSGGGGSGGGGSGGGGSGGGGSEIVMTQSPATLSLSPGERATLSCRASQSVSSYLNWYQQKPGQAPRLLIYYASRRHTGIPARFSGSGSGTDFTLTISSLQPEDFAVYYCQQGYNLPYTFGQGTKVEIKEPKSSDKTHTCPPCPAPPAAAPSVFLFPPKPKDTLMISRTPEVTCVVVDVSHEDPEVKFNWYVDGVEVHNAKTKPREEQYNSTYRVVSVLTVLHQDWLNGKEYKCAVSNKALPAPIEKTISKAKGQPREPQVYTLPPSRDELTKNQVSLTCLVKGFYPSDIAVEWESNGQPENNYKTTPPVLDSDGSFFLYSKLTVDKSRWQQGNVFSCSVMHEALHNHYTQKSLSLSPGGGGSPSSYVLTQPPSVSVAPGQTARITCGGNNIGSKSVNWFQQKPGQAPVLVVYDDSGRPSGIPERFSGSTSGNTATLTISRVEAGDEADYYCQVWDSSSDHVVFGGGTKLTVLGGGGSGGGGSGGGGSGGGGSQVQLVESGGGVVQPGRSLRLSCAASGFTLSYYGMHWVRQAPGKGLEWVAAISHDGSDKYYADSVKGRFTISRDNSKNRLYLQMNSLRAEDTAVYYCSNDQFDPWGQGTLVTVSSR
notes: ADAPTIR anti-4-1BB (HL) x anti-OX40 with T86R; PAA (del) Fc; also called FX01101
A word on the Kd: it is the concentration at which binding is half-saturated. A low value points to tighter binding. One may read the koff as the rate constant with which the complex falls apart. A lower koff goes with a long-lived complex. As a reminder, the kon is the rate constant with which the complex forms. A higher kon goes with faster complex formation. Usually EC50 (read off the curve) stands for the concentration needed to bring the measured effect to its halfway point. Low readings indicate a more potent agent, high ones a less potent agent. B1: in the test with Full-length Human OX40, the “OX40 Reporter Assay EC50” value was found to be 0.017 nM and the “OX40 Reporter Assay Max induction” value was determined as 5.89e+06. Also, in the test with Full-length Human 4-1BB, the “4-1BB Reporter Assay EC50” value was found to be 0.018 nM and the “4-1BB Reporter Assay Max induction” value was 1.44e+06. In the test with Human OX40 ECD-AFH [1], this molecule showed a Kd of 0.6 nM, a koff of 0.00041 s⁻¹ and a kon of 630000 M⁻¹ s⁻¹. For the same molecule, in the test with Human 4-1BB ECD-AFH [2], the affinity, expressed as Kd, was 16 nM; the koff is 0.0046 s⁻¹; the kon is 290000 M⁻¹ s⁻¹. In the test with Human OX40 ECD-AFH [3], the Kd was below 1 nM, the koff was 0.00029 s⁻¹ and the kon turned out to be 980000 M⁻¹ s⁻¹. In the test with Cyno OX40-AFH, this molecule showed a Kd below 1 nM, a koff of 0.00027 s⁻¹ and a kon of 1.1e+06 M⁻¹ s⁻¹. In the test with Human 4-1BB ECD-AFH [4], this molecule showed a Kd of 17 nM, a koff of 0.0046 s⁻¹ and a kon of 270000 M⁻¹ s⁻¹. Moreover, the “EC50 (read off the curve)” value with Full-length Cyno 4-1BB was around 0.3 nM.

B2: FXX01102 (bispecific antibody)
chain: EVQLVQSGAEVKKPGASVKVSCKASGYTFTSYWMNWVRQAPGQGLEWMGNIYPSGGSTNYAQKFQGRVTMTVDTSTSTVYMELSSLRSEDTAVYYCASFSDGYYAYAMDYWGQGTLVTVSSGGGGSGGGGSGGGGSGGGGSEIVMTQSPATLSLSPGERATLSCRASQSVSSYLNWYQQKPGQAPRLLIYYASRRHTGIPARFSGSGSGTDFTLTISSLQPEDFAVYYCQQGYNLPYTFGQGTKVEIKEPKSSDKTHTCPPCPAPPAAAPSVFLFPPKPKDTLMISRTPEVTCVVVDVSHEDPEVKFNWYVDGVEVHNAKTKPREEQYNSTYRVVSVLTVLHQDWLNGKEYKCAVSNKALPAPIEKTISKAKGQPREPQVYTLPPSRDELTKNQVSLTCLVKGFYPSDIAVEWESNGQPENNYKTTPPVLDSDGSFFLYSKLTVDKSRWQQGNVFSCSVMHEALHNHYTQKSLSLSPGGGGSPSSYVLTQPPSVSVAPGKTARITCGGNNIGSKSVNWFQQKPGQAPVLVVYDDSGRPSGIPERFSGSTSGNTATLTISRVEAGDEADYYCQVWDSSSDHVVFGGGTKLTVLGGGGSGGGGSGGGGSGGGGSQVQLVESGGGVVQPGRSLRLSCAASGFTLSYYGMHWVRQAPGKGLEWVAAISHDGSDKYYADSVKGRFTISRDNSKNRLYLQMNSLRAEDTAVYYCSNDQFDPWGQGTLVTVSSR
notes: ADAPTIR anti-4-1BB (HL) x anti-OX40 with Q17K and T86R; PAA (del) Fc; also called FX01102
As to B2, in the test with Full-length Human OX40, the “OX40 Reporter Assay EC50” value amounted to 0.016 nM and the “OX40 Reporter Assay Max induction” value stood at 5.78e+06. Besides, in the test with Full-length Human 4-1BB, the “4-1BB Reporter Assay EC50” value is 0.021 nM and the “4-1BB Reporter Assay Max induction” value was 1.4e+06. In the test with Human OX40 ECD-AFH [1], this molecule registered a Kd of 0.4 nM, a koff of 0.0003 s⁻¹ and a kon of 710000 M⁻¹ s⁻¹. In the test with Human 4-1BB ECD-AFH [2], the Kd is 15 nM, the koff amounted to 0.0043 s⁻¹ and the kon turned out to be 290000 M⁻¹ s⁻¹. Further, in the test with Human OX40 ECD-AFH [3], the Kd was below 1 nM, the koff turned out to be 0.00025 s⁻¹ and the kon turned out to be 1e+06 M⁻¹ s⁻¹. Further, in the test with Cyno OX40-AFH, the Kd was below 1 nM, the koff is 0.00023 s⁻¹ and the on-rate constant (kon) is 1.1e+06 M⁻¹ s⁻¹. In the test with Human 4-1BB ECD-AFH [4], this molecule returned a Kd of 16 nM, a koff of 0.0047 s⁻¹ and a kon of 290000 M⁻¹ s⁻¹. Further, in the test with Full-length Cyno 4-1BB, the “EC50 (read off the curve)” value is around 0.3 nM.
